Several values for one entry are separate records, joined by “and”; a condition that tells them apart may be missing. Equal entries are not always repeated. Values belong to the substance of their own block, whether it stands above or below them.
Legend:
[1] = molecular target: mouse IgG whole molecules (Pierce) (mouse); assay: sandwich ELISA; biotinylated antibody directly on streptavidin well; IgG mixture; detected with aM-AP
[2] = molecular target: dog IgG whole molecules (reagent grade, Sigma) (dog); assay: sandwich ELISA; capture CB on C-DNA well; IgG mixture; detected with aD-AP
[3] = molecular target: bovine IgG whole molecules (reagent grade, Sigma) (bovine); assay: sandwich ELISA; capture AB on A-DNA well; IgG mixture; detected with aB-AP
[4] = molecular target: bovine IgG whole molecules (reagent grade, Sigma) (bovine); assay: sandwich ELISA; capture BB on B-DNA well; IgG mixture; detected with aB-AP
[5] = molecular target: bovine IgG whole molecules (reagent grade, Sigma) (bovine); assay: sandwich ELISA; biotinylated antibody directly on streptavidin well; IgG mixture; detected with aB-AP
[6] = molecular target: mouse IgG whole molecules (Pierce) (mouse); assay: sandwich ELISA; capture AB on A-DNA well; IgG mixture; detected with aM-AP
[7] = molecular target: mouse IgG whole molecules (Pierce) (mouse); assay: sandwich ELISA; capture CB on C-DNA well; IgG mixture; detected with aM-AP
[8] = molecular target: dog IgG whole molecules (reagent grade, Sigma) (dog); assay: sandwich ELISA; capture BB on B-DNA well; IgG mixture; detected with aD-AP
[9] = molecular target: bovine IgG whole molecules (reagent grade, Sigma) (bovine); assay: sandwich ELISA; capture CB on C-DNA well; IgG mixture; detected with aB-AP
[10] = molecular target: dog IgG whole molecules (reagent grade, Sigma) (dog); assay: sandwich ELISA; capture AB on A-DNA well; IgG mixture; detected with aD-AP
[11] = molecular target: mouse IgG whole molecules (Pierce) (mouse); assay: sandwich ELISA; capture BB on B-DNA well; IgG mixture; detected with aM-AP
[12] = molecular target: mouse IgG whole molecules (Pierce) (mouse); assay: sandwich ELISA; capture CD on C-DNA well; IgG mixture; detected with aM-AP
[13] = molecular target: bovine IgG whole molecules (reagent grade, Sigma) (bovine); assay: sandwich ELISA; capture BD on B-DNA well; IgG mixture; detected with aB-AP
[14] = molecular target: dog IgG whole molecules (reagent grade, Sigma) (dog); assay: sandwich ELISA; capture CD on C-DNA well; IgG mixture; detected with aD-AP
[15] = molecular target: mouse IgG whole molecules (Pierce) (mouse); assay: sandwich ELISA; capture BD on B-DNA well; IgG mixture; detected with aM-AP
[16] = molecular target: bovine IgG whole molecules (reagent grade, Sigma) (bovine); assay: sandwich ELISA; capture CD on C-DNA well; IgG mixture; detected with aB-AP
[17] = molecular target: mouse IgG whole molecules (Pierce) (mouse); assay: sandwich ELISA; capture AD on A-DNA well; IgG mixture; detected with aM-AP
[18] = molecular target: dog IgG whole molecules (reagent grade, Sigma) (dog); assay: sandwich ELISA; capture AD on A-DNA well; IgG mixture; detected with aD-AP
[19] = molecular target: bovine IgG whole molecules (reagent grade, Sigma) (bovine); assay: sandwich ELISA; capture AD on A-DNA well; IgG mixture; detected with aB-AP
[20] = molecular target: dog IgG whole molecules (reagent grade, Sigma) (dog); assay: sandwich ELISA; capture BD on B-DNA well; IgG mixture; detected with aD-AP
[21] = molecular target: dog IgG whole molecules (reagent grade, Sigma) (dog); assay: sandwich ELISA; biotinylated antibody directly on streptavidin well; IgG mixture; detected with aD-AP
[22] = molecular target: mouse IgG whole molecules (Pierce) (mouse); assay: ELISA on mouse IgG-coated plate, A405, against controls A and B
[23] = molecular target: mouse IgG whole molecules (Pierce) (mouse); assay: sandwich ELISA; capture BM on B-DNA well; IgG mixture; detected with aM-AP
[24] = molecular target: dog IgG whole molecules (reagent grade, Sigma) (dog); assay: sandwich ELISA; capture CM on C-DNA well; IgG mixture; detected with aD-AP
[25] = molecular target: dog IgG whole molecules (reagent grade, Sigma) (dog); assay: sandwich ELISA; capture AM on A-DNA well; IgG mixture; detected with aD-AP
[26] = molecular target: mouse IgG whole molecules (Pierce) (mouse); assay: sandwich ELISA; capture AM on A-DNA well; IgG mixture; detected with aM-AP
[27] = molecular target: bovine IgG whole molecules (reagent grade, Sigma) (bovine); assay: sandwich ELISA; capture CM on C-DNA well; IgG mixture; detected with aB-AP
[28] = molecular target: bovine IgG whole molecules (reagent grade, Sigma) (bovine); assay: sandwich ELISA; capture AM on A-DNA well; IgG mixture; detected with aB-AP
[29] = molecular target: bovine IgG whole molecules (reagent grade, Sigma) (bovine); assay: sandwich ELISA; capture BM on B-DNA well; IgG mixture; detected with aB-AP
[30] = molecular target: dog IgG whole molecules (reagent grade, Sigma) (dog); assay: sandwich ELISA; capture BM on B-DNA well; IgG mixture; detected with aD-AP
[31] = molecular target: mouse IgG whole molecules (Pierce) (mouse); assay: sandwich ELISA; capture CM on C-DNA well; IgG mixture; detected with aM-AP

absorbance reading (405 nm) [1]: 50 and 64 and 61
absorbance reading (405 nm) [2]: 9
absorbance reading (405 nm) [3]: 729
absorbance reading (405 nm) [4]: 591
absorbance reading (405 nm) [5]: 279 and 319 and 265
absorbance reading (405 nm) [6]: 146
absorbance reading (405 nm) [7]: 24
absorbance reading (405 nm) [8]: 9
absorbance reading (405 nm) [9]: 90
absorbance reading (405 nm) [10]: 20
absorbance reading (405 nm) [11]: 153
Substance: biotinylated rabbit anti-bovine IgG (#B-7140), polyclonal rabbit IgG (antibody)

absorbance reading (405 nm) [12]: 26
absorbance reading (405 nm) [1]: 20 and 24 and 35
absorbance reading (405 nm) [13]: 57
absorbance reading (405 nm) [5]: 28 and 26 and 75
absorbance reading (405 nm) [14]: 102
absorbance reading (405 nm) [15]: 31
absorbance reading (405 nm) [16]: 23
absorbance reading (405 nm) [17]: 73
absorbance reading (405 nm) [18]: 673
absorbance reading (405 nm) [19]: 84
absorbance reading (405 nm) [20]: 481
absorbance reading (405 nm) [21]: 334 and 413 and 941
Substance: biotinylated rabbit anti-dog IgG (#B-7640), polyclonal rabbit IgG (antibody)

signal-to-noise ratio [22]: 60
absorbance reading (405 nm) [1]: 177 and 189 and 186
absorbance reading (405 nm) [23]: 346
absorbance reading (405 nm) [24]: 5
absorbance reading (405 nm) [5]: 15 and 31 and 19
absorbance reading (405 nm) [25]: 8
absorbance reading (405 nm) [26]: 533
absorbance reading (405 nm) [27]: 8
absorbance reading (405 nm) [28]: 45
absorbance reading (405 nm) [29]: 30
absorbance reading (405 nm) [30]: 4
absorbance reading (405 nm) [31]: 49
Substance: biotinylated rabbit anti-mouse IgG (#B-8520), polyclonal rabbit IgG (antibody)
